# From article PMC3621117 (The FEBS journal, 2013)
# B1: wild-type ExsD (natural protein)
# chain: VVGSDARSRGRVPGYASSSLYRESGIISARQLALLQRMLPRLRLEQLFRCEWLQQRLARGLALGREEVRQILLCAAQDDDGWCSELGDRVNLAVPQSMIDWVLLPVYGWWESLLDQAIPGWRLSLVELETQSRQLRVKSEFWSRVAELEPEQAREELARVAKCQARTQEQVAELAGKLETASALAKSAWPNWQRGMATLLASGGLAGFEPIPEVLECLWQPLCRLDDDVGAADAVQAWLHERNLCQAQDHFYWQS
# Molecular target: the molecule itself
# Assay: SEC
protein,measurement,value
B1,stoichiometry N,3
